In patent publication US9872921B2, “DE-N-acetyl sialic acid antigens, antibodies thereto, and methods of use in cancer therapy” (priority 2004, dated 2018):

Assays:
[1] = tested on: SK-MEL 28 cells; experiment: Cell cycle analysis by propidium iodide staining and flow cytometry; type: cell-based, human; conditions: 100 nM, 48 h
Description: To further assess the affect of SEAM 3 mAb on cell growth, the stage of the cell cycle after treatment with SEAM 3 was determined. In this experiment, the cells were stained with the fluorescent DNA binding dye propidium iodide to characterize cell populations in various stages of the cell cycle and the effects of adding control antibodies, nocodazole (a drug that arrest the cells in mitosis) and SEAM 3.
Approximately 10^5 SK-MEL 28 cells were plated on a 96-well tissue culture plate and allowed to adhere. After 24 h the medium was replaced with one that had either antibody or drug and incubated for a further 48 h. Cells were spun (to collect any cells that may have detached), and fixed in 70% ice-cold methanol (added drop wise) for at least 30 minutes at 4° C. The cells were washed twice with PBS, and to ensure that only DNA was stained, the fixed cells were treated with ribonuclease I (100 μg/ml, source) for 30 minutes at 37° C. Propidium iodide (50 μg/ml) was added and samples were analyzed using a Guava EasyCyte flow cytometer.

[2] = tested on: SEAM 3; experiment: Inhibition ELISA of SEAM 3 binding to plate-coated N-Pr NmB PS-dodecylamine; parameters: species or system murine; conditions: dilution required to decrease absorbance at 405 nm by 50%
SEAM 3, sequence (as listed by the source): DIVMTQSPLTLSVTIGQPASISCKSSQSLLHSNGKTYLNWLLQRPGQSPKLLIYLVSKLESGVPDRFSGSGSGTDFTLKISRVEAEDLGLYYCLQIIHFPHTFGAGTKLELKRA
SEAM 3, sequence (as listed by the source): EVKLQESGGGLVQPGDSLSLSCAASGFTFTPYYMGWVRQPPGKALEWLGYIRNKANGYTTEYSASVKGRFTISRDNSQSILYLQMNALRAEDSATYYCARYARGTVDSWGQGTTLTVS
Description: The ability of colominic acid and N-Pr NmB PS to inhibit binding of SEAM 3 to in an ELISA was compared to sialidase A-treated colominic acid and N-Pr NmB PS prepared as described above. The wells of microtiter plates (Immulon 2; Dynatech Laboratories, Inc.) were coated with N-Pr NmB PS-dodecylamine (prepared as described in Example 1) in phosphate buffered saline (PBS; pH 7.4). The plates were incubated overnight at 4° C. After washing three times with PBS, the wells were filled with 200 μl of blocking buffer (PBS containing 1% bovine serum albumin [BSA, Sigma] and 0.1% sodium azide; [pH 7.4]) and then incubated for 30-60 min at room temperature to block nonspecific binding sites. The plates were washed three times with PBS buffer. Inhibitors were serially diluted in blocking buffer on the plate in total final volume of 50 μl. SEAM 3 diluted in blocking buffer to a concentration that produced an OD405 nm of 0.5 when developed with substrate was added to the wells in a volume of 50 μl. The plates were covered and incubated overnight at 4° C. […] The absorbance at 405 nm after 30 minutes incubation at ambient temperature was measured using a BioRad Model 550 microtiter plate reader. The relative activity of each sample was compared by determining the dilution required to decrease the absorbance at 405 nm by 50% of the absorbance observed in wells containing SEAM 3 but no inhibitor.

[3] = tested on: NmB strain M7; experiment: Fluorescence microscopy of SEAM 12 binding to capsule PS on NmB strain M7 grown with N-acyl mannosamine supplements; parameters: species or system Neisseria meningitidis
From the text: The trihaloacetylated mannosamine was incorporated into NmB PS by inoculating colonies of NmB strain M7 grown overnight at 37 degrees C. in 5% carbon dioxide on a freshly streaked chocolate agar plate to an OD620 nm of 0.1 in Muller-Hinton broth supplemented with 5 millimolar N-acyl mannosamine For example, N-acetyl, -trichloroacetyl, -trifluoroacetyl mannosamine. Stain M7 contains a transposon the interrupts the gene encoding N-acetyl-D-glucosamine-6-phosphate 2 epimerase (Swartley et al. 1994, J. Bact. 176:1530; Swartley et al. 1996, J. Bact. 178:4052). As a result, the bacteria cannot synthesize capsule PS unless the growth media was supplemented with N-acetyl mannosamine Therefore, the N-acyl content of the capsule PS synthesized in this system can be determined by the N-acyl or mixture of N-acyl mannosamine provided in the growth media. The bacteria were grown at 37 degrees C. […]).
There is no binding of SEAM 12 to M7 without N-acyl mannosamine or with N-trichloroacetyl mannosamine supplement (FIG. 37, panels B and C). […] However, SEAM 12 does bind to the capsule PS containing N-trifluoroacetyl groups (FIG. 37, panel D, shaded gray in the figure) since the trifluoromethyl group is nearly the same size as the methyl group of the N-acetyl derivative.

[4] = tested on: polysialic acid antigens expressed by the human neuronal cell line CHP-134; conditions: cited from earlier work

Molecule: COC(=O)Nc1nc2cc(C(=O)c3cccs3)ccc2[nH]1 [nocodazole, reference compound]
- cells arrested in G2/M phase [1]: approximately 50%

Molecule: poly alpha (2→8) N-acetyl neuraminic acid [colominic acid]
- activity for binding to SEAM 3, fold less than N-Pr NmB PS [2]: approximately 200 fold

B1: SEAM 12: anti-N-Pr NmB PS murine mAb (IgG2a) (antibody, V domains shown)
VH: QVKLEQSGGGLVRPGNSLKLSCVTSGFTFINYRMHWLRQPPGKRLEWIAVITDNSDNYVVNYAESVKGRFAISRDDSKSSVYLEMNRLREEDTATYFCSRSRRSFFDYWGQGTTLTVS
VL: DIVMTQTTVIMSASPGEKVTMTCSASSSVTYMHWYQQKSRTSPKLWIYDTSKLASGVPGRFSGSGSGNSYALTISSMEPEDVATYYCFQGSGYPLTFGAGTKLGLKRA
modifications: mouse
- SEAM 12 binding to capsule PS ([3]; capsule PS containing N-trifluoroacetyl groups): does bind
- SEAM 12 binding to M7 ([3]; growth media supplemented with N-acetyl mannosamine): binding is indicated by the presence of red fluorescence
- SEAM 12 binding to M7 ([3]; with N-trichloroacetyl mannosamine supplement): no binding
- SEAM 12 binding to M7 ([3]; without N-acyl mannosamine): no binding

B2: SEAM 35: anti-N-Pr NmB PS murine mAb (IgG2a) (antibody, V domains shown)
VH: EVKLEESGGGLVQPGGSLSLSCAASGFTFTDYYLSWVRQPPGKALEWLGFIRNTANGYTTEYSASVKGRFTIARDNSQSILTLQMNALRAEDSATYYCARWSRRAMDYWGQGTSVTVS
VL: DIVMTQSPISMSMSLGERVTLSCKASENVGTYVSWYQQKPEQSPKLLISGASNRYTGVPDRFTGSGSATDFTLTISSVQAEDLADYHCGQSYNYPYTFGGGTKLEIKRA
modifications: mouse
- cross-reactivity with polysialic acid antigens expressed by CHP-134 [4]: greater cross-reactivity
